The results in this text go back to patent publication US20260193356A1.

The target in experiment [1] is human PDL1 (hPDL1) expressed on CHO-S cells (CHO-S-hPDL1) (human) (UniProt Q9NZQ7). Briefly: flow cytometry on CHO-S-hPDL1 cells, secondary antibody only; 0.1 µg/mL. On the technique in general: Flow cytometry measures light scatter and fluorescence of single cells or particles in a stream.
For experiment [2] the target is unchanged. The experiment in a line: flow cytometry on CHO-S-hPDL1 cells, secondary antibody only; 1 µg/mL.
For experiment [3], the target named is mouse (Mus musculu) PDL1 (mPDL1) expressed on CHO-S cells (CHO-S-mPDL1) (mouse) (UniProt Q9EP73). Briefly: flow cytometry on CHO-S-mPDL1 cells, secondary antibody only; 0.1 µg/mL.
Sequence of mouse (Mus musculu) PDL1 (mPDL1) expressed on CHO-S cells (CHO-S-mPDL1) (mouse) (Q9EP73 19-290 limits assumed): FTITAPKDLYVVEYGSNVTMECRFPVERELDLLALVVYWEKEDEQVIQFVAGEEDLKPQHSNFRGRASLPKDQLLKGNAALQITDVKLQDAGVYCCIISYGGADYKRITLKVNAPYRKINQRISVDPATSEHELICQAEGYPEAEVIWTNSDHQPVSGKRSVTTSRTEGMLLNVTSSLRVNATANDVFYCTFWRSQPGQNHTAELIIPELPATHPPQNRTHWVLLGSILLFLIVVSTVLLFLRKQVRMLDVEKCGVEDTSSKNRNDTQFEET
For experiment [4], the target named is monkey (Macaca fascicularis) PDL1 (fasPDL1) expressed on CHO-S cells (CHO-S-fasPDL1) (monkey (Macaca fascicularis)). Briefly: flow cytometry on CHO-S-fasPDL1 cells, secondary antibody only; 1 µg/mL.
Sequence of monkey (Macaca fascicularis) PDL1 (fasPDL1) expressed on CHO-S cells (CHO-S-fasPDL1) (monkey (Macaca fascicularis)) (Q9NZQ7 other isoform, or with tags, fused parts or gaps limits assumed): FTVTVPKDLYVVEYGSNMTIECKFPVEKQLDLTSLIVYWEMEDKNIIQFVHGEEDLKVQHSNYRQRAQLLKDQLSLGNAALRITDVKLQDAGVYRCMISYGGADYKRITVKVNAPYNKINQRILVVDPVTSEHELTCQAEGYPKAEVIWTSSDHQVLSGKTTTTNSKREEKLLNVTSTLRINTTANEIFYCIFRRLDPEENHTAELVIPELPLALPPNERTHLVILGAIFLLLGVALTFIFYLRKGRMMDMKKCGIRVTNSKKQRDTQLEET
The target of experiment [5] is mouse (Mus musculu) PDL1 (mPDL1) expressed on CHO-S cells (CHO-S-mPDL1) (mouse) (UniProt Q9EP73). Briefly: flow cytometry on CHO-S-mPDL1 cells, secondary antibody only; 1 µg/mL.
Experiment [6] has as its target monkey (Macaca fascicularis) PDL1 (fasPDL1) expressed on CHO-S cells (CHO-S-fasPDL1) (monkey (Macaca fascicularis)). The experiment in a line: flow cytometry on CHO-S-fasPDL1 cells, secondary antibody only; 0.1 µg/mL.
Experiment [7] addresses dog (Canis lupus) PDL1 (dPDL1) expressed on CHO-S cells (CHO-S-dPDL1) (dog (Canis lupus)). The experiment in a line: flow cytometry on CHO-S-dPDL1 cells, secondary antibody only; 0.1 µg/mL.
Experiment [8] shares this target. The experiment in a line: flow cytometry on CHO-S-dPDL1 cells, secondary antibody only; 1 µg/mL.
Experiment [9] concerns the target monkey (Macaca fascicularis) PDL1 (fasPDL1) expressed on CHO-S cells (CHO-S-fasPDL1) (monkey (Macaca fascicularis)). Briefly: flow cytometry on CHO-S-fasPDL1 cells; antibody 0.1 µg/mL.
The target of experiment [10] is dog (Canis lupus) PDL1 (dPDL1) expressed on CHO-S cells (CHO-S-dPDL1) (dog (Canis lupus)). The experiment in a line: flow cytometry on CHO-S-dPDL1 cells; antibody 1 µg/mL.
Sequence of dog (Canis lupus) PDL1 (dPDL1) expressed on CHO-S cells (CHO-S-dPDL1) (dog (Canis lupus)) (chain, as listed by the source limits assumed, form in doubt): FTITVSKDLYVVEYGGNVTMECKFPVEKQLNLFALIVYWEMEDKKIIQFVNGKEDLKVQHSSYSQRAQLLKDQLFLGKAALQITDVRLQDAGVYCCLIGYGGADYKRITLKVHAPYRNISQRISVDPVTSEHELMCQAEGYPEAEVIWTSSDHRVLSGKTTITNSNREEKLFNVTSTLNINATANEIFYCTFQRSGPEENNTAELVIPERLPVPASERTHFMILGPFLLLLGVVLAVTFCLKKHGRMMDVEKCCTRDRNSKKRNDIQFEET
Experiment [11] addresses human PDL1 (hPDL1) expressed on CHO-S cells (CHO-S-hPDL1) (human) (UniProt Q9NZQ7). The experiment in a line: flow cytometry on CHO-S-hPDL1 cells; antibody 1 µg/mL.
Experiment [12] concerns the target mouse (Mus musculu) PDL1 (mPDL1) expressed on CHO-S cells (CHO-S-mPDL1) (mouse) (UniProt Q9EP73). The experiment in a line: flow cytometry on CHO-S-mPDL1 cells; antibody 1 µg/mL.
Experiment [13] has as its target dog (Canis lupus) PDL1 (dPDL1) expressed on CHO-S cells (CHO-S-dPDL1) (dog (Canis lupus)). Briefly: flow cytometry on CHO-S-dPDL1 cells; antibody 0.1 µg/mL.
For experiment [14], the target named is monkey (Macaca fascicularis) PDL1 (fasPDL1) expressed on CHO-S cells (CHO-S-fasPDL1) (monkey (Macaca fascicularis)). The experiment in a line: flow cytometry on CHO-S-fasPDL1 cells; antibody 1 µg/mL.
Experiment [15] deals with human PDL1 (hPDL1) expressed on CHO-S cells (CHO-S-hPDL1) (human) (UniProt Q9NZQ7). Briefly: flow cytometry on CHO-S-hPDL1 cells; antibody 0.1 µg/mL.
The target of experiment [16] is mouse (Mus musculu) PDL1 (mPDL1) expressed on CHO-S cells (CHO-S-mPDL1) (mouse) (UniProt Q9EP73). The experiment in a line: flow cytometry on CHO-S-mPDL1 cells; antibody 0.1 µg/mL.

Sequence of human PDL1 (hPDL1) expressed on CHO-S cells (CHO-S-hPDL1) (human) (Q9NZQ7 19-290 limits assumed): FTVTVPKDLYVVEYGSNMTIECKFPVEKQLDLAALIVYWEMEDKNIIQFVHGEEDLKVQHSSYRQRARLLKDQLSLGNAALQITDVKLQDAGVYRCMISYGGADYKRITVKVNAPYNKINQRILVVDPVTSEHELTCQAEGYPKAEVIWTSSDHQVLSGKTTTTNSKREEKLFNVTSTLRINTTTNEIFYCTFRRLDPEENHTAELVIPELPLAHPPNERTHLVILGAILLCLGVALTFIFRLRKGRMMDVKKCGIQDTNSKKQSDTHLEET

As to “secondary antibody anti-hIgG-Fc-Alex Flour 647 (RL1-H) (Jackson ImmunoResearch Laboratories, Inc., 109-606-170)”, the Percentage of Positive Cells (%) in experiment [1] worked out at 1.48%; in [2] it was 1.13%; in experiment [3], 1.04%; in [4] it was 2.34%; in experiment [5], 2.31%; in experiment [6], 1.38%. Besides, the figures for the Percentage of Positive Cells (%) in experiment [7] and in [8] were 1.68% and 1.76%, respectively.

With “ISO (isotype control, antibody with the same IgG1 subtype but targeting an unrelated target)”, the Percentage of Positive Cells (%) in experiment [9] worked out at 1.87%; in experiment [10], 4.28%; in [11] it was 3.05%; in [12] it was 3.52%; in experiment [13], 14.2%; in experiment [14] it was 2.53%. For the same substance, the results for the Percentage of Positive Cells (%) in experiment [15] and in [16] were 2.01% and 2.26%, respectively.
